In patent US20260085106A1 (AUTOLUS, published 2026):

Target: T1, caffeine dAb
T1 construct: Llama-derived
Assay: peptide phage display panning on the anti-caffeine sdAb, method of Example 6

T1 sequence (VHH, as listed by the source): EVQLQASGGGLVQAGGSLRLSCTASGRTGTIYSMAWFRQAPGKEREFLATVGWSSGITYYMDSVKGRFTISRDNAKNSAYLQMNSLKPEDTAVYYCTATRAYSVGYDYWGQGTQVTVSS

Binding result, binds:
HDSPTAA (also called HDSPTAA) [SEQ ID NO 14]
ACTYLNSAKC [SEQ ID NO 16]
YPDVPLA (also called YPDVPLA) [SEQ ID NO 15]
DLSIGNH (also called DLSIGNH) [SEQ ID NO 13]
HTLNKPP (also called HTLNKPP) [SEQ ID NO 12]
